Reference: article PMC9539438
Values joined by “and” are separate entries in the source; they are usually repeats but may differ in a detail not shown here. Equal entries are not always repeated.

What was measured:
[1] = biological target: P66 with a c-Myc epitope tag inserted C-terminally to D303 (Borrelia burgdorferi)
[2] = biological target: P66 with a c-Myc epitope tag inserted C-terminally to D303 (Borrelia burgdorferi); test: native gel or EMSA; Blue native PAGE (4-16% Bis-Tris) of membrane B-fractions solubilised in 1.25% digitonin; immunoblot with anti-P66 or anti-c-Myc
[3] = biological target: P66 with a c-Myc epitope tag inserted C-terminally to E33 (Borrelia burgdorferi)
[4] = biological target: P66 with a c-Myc epitope tag inserted C-terminally to E33 (Borrelia burgdorferi); test: native gel or EMSA; Blue native PAGE (4-16% Bis-Tris) of membrane B-fractions solubilised in 1.25% digitonin; immunoblot with anti-P66 or anti-c-Myc

| Substance | single-channel conductance of the outer membrane fraction in black lipid bilayers (1 M KCl, 20 mV) [1] [nS] | stoichiometry N [2] | single-channel conductance of the outer membrane fraction in black lipid bilayers (1 M KCl, 20 mV) [3] [nS] | stoichiometry N [4] |
| --- | --- | --- | --- | --- |
| P66 with a c-Myc epitope tag inserted C-terminally to D303 (natural protein) | < 4 | 3 and 5 |  |  |
| P66 with a c-Myc epitope tag inserted C-terminally to E33 (natural protein) |  |  | < 4 | 3 |
